The source of these data is patent US20260242432A1 (NUVIG THERAPEUTICS, published 2026).

Experiment [1] has as its target T1, mouse FcRn (mouse, UniProt Q61559 22-297; P01887 21-119, limits assumed).
T1 construct: also called mFcRn; murine FcRn
T1 sequence (looked up) 1: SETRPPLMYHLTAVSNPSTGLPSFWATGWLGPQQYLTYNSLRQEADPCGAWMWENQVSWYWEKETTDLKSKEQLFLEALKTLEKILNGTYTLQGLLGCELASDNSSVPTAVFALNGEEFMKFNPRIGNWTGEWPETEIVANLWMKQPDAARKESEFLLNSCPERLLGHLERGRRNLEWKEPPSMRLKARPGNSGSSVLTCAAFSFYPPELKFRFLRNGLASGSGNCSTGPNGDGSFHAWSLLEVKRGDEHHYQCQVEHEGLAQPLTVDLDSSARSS
T1 sequence (looked up) 2: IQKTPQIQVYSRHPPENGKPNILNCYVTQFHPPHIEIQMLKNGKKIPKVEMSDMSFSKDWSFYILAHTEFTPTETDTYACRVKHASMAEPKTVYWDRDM
Nature of the experiment: SPR, Fc loaded on anti-human Fc biosensors. The procedure:
(§1) Dissociation constants (KDs) are plotted as μM (solid bars) and association constants (KAs) are plotted as Ms⁻¹ (hatched bars). (FIG. 9E and FIG. 9F) Female WT C57BL/6 (FIG. 9E) and humanized homozygous FcRn (Tg32) mice (FIG. 9F) were administered one dose of 50 mg/kg or 100 mg/kg of F241A/B4ST6 Fc or 10 mg/kg of Fc^Abdeg and serum mouse IgG was measured via ELISA out to day 7 post-dose. (FIG. 9G) SIGN-R1^{-/-} and hDC-SIGN⁺ murine bone marrow-derived macrophages (BMDMs) had their Fcγ receptors blocked then were incubated with PBS, F241A/B4ST6 Fc, or Fc^Abdeg and binding was detected by FACS using an anti-human IgG Fc antibody. […] (FIG. 911-9J) Female WT C57BL/6 mice (n=5 per group) and female and male SIGN-R1^{-/-} mice (n=5 per group) were administered arthritogenic K/BxN serum alongside PBS, 1 g/kg IVIG, 50 mg/kg F241A/B4ST6 Fc, or 10 mg/kg Fc^Abdeg in a preventative manner, and joint swelling was clinically scored for 10 days. […] Statistical significance was assessed using an ordinary one-way ANOVA with Tukey's multiple comparisons.
(§2) At the outset, the interactions between WT Fc, F241A/B4ST6 Fc, and Fc^Abdeg were tested with mouse and human FcRn using surface plasmon resonance (SPR). […] C57BL/6 and hFcRn (Tg32) mice were given a single intravenous injection of F241A/B4ST6 Fc or Fc^Abdeg and, following dosing, serum mIgG was determined via ELISA.
A general note: Surface plasmon resonance follows binding to a sensor surface in real time, without labels.

Experiment [2] concerns the target T2, human FcRn (human, UniProt P55899 24-297; P61769 21-119, limits assumed).
T2 construct: also called hFcRn
In words: SPR, Fc loaded on anti-human Fc biosensors. On the procedure: as §1, §2

Experiment [3] concerns the target T1, mouse FcRn. Nature of the experiment: not stated in the sentence (apparently the SPR of Example 7).
Experiment [4] has as its target T1, mouse FcRn. Nature of the experiment: SPR; Fc loaded on anti-human Fc biosensors, mouse FcRn in solution. The procedure:
as §1, §2

Experiment [5] concerns the target T2, human FcRn. Nature of the experiment: SPR; Fc loaded on anti-human Fc biosensors, human FcRn in solution. On the procedure: as §1, §2
The target of experiment [6] is T3, human Dendritic Cell-Specific ICAM-3-Grabbing Non-Integrin (DC-SIGN) on hDC-SIGN^+/SIGN-R1^-/- murine bone … (human, UniProt Q9NNX6 1-404).
T3 construct: whole, on cells; also called hCD209
T3 sequence (looked up): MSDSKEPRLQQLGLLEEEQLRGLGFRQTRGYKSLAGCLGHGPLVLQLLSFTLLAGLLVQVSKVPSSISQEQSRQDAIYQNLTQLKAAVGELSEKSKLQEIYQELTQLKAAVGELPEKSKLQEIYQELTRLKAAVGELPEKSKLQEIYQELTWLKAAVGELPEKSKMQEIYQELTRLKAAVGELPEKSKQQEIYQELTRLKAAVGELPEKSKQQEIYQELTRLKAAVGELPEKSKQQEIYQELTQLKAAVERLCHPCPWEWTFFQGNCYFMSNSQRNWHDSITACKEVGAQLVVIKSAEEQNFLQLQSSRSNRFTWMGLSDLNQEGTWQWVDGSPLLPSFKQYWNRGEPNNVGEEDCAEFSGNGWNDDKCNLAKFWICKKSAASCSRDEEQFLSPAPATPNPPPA
In words: flow cytometry on hDC-SIGN^+/SIGN-R1^-/- BMDMs, Fc gamma receptors blocked, detection with anti-hIgG Fc antibody. On the procedure:
Both IVIG and sialylated IgG Fc require the murine C-type lectin Specific ICAM3-Grabbing Non-Integrin Related-1 (SIGN-R1) to mediate anti-inflammatory activity in vivo. This requirement can be circumvented by introduction of SIGN-R1 human orthologue, Dendritic Cell-Specific ICAM-3-Grabbing Non-Integrin (DC-SIGN). Therefore, the ability of both F241A/B4ST6 Fc and Fc^Abdeg to bind DC-SIGN was examined via a cell-binding assay. […] Cells were cultured overnight in high glucose DMEM medium supplemented with 1× antibiotic-antimycotic and 1×FBS at 37° C. and 5% CO₂. The next day, supernatants were discarded and cells were detached with enzyme-free dissociation buffer. Suspended cells were collected and centrifuged for 10 minutes at 400 rpm. The pellet was resuspended and washed in binding buffer (1×TBS, […], 2.5% FBS and 0.05% sodium azide). Fc receptors were blocked by adding anti-mouse CD16/32 antibody clone 93. After blocking, cells were washed in binding buffer, after which 100 μg/mL of Fc^Abdeg and F241A/B4ST6 Fc were added to the cells, which were then incubated for 1 hour on ice. […] BMDMs were analyzed by flow cytometry to detect surface-bound IgG. No bound IgG were detected on the SIGN-R1^{-/-} BMDMs incubated with F241A/B4ST6 Fc or Fc^Abdeg (FIG. 9G). However, IgG was detected on hDC-SIGN⁺/SIGN-R1^{-/-} BMDMs treated with F241A/B4ST6 Fc, but not with Fc^Abdeg (FIG. 9G).
For orientation: A flow cytometer gives signals particle by particle.

T2 sequence (P55899 24-297 limits assumed, chain 1 of 2): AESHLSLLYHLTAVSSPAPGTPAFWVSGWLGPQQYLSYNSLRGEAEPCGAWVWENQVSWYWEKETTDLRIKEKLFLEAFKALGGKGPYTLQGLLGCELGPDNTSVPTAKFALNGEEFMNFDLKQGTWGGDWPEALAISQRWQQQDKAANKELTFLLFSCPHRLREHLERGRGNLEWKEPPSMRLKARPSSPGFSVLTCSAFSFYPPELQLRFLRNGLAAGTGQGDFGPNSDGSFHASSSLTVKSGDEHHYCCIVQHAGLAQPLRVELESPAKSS
T2 sequence (P61769 21-119 limits assumed, chain 2 of 2): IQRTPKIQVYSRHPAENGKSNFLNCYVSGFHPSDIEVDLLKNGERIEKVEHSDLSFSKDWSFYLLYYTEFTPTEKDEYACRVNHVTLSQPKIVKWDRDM

B1: Fc^Abdeg polypeptide (efgartigimod), human IgG1 Fc with M252Y/S254T/T256E/H433K/N434F (other)
chain: DKTHTCPPCPAPELLGGPSVFLFPPKPKDTLYITREPEVTCVVVDVSHEDPEVKFNWYVDGVEVHNAKTKPREEQYNSTYRVVSVLTVLHQDWLNGKEYKCKVSNKALPAPIEKTISKAKGQPREPQVYTLPPSRDELTKNQVSLTCLVKGFYPSDIAVEWESNGQPENNYKTTPPVLDSDGSFFLYSKLTVDKSRWQQGNVFSCSVMHEALKFHYTQKSLSLSPG
notes: also called EFG Fc
For the molecule B1, the results for the “fold lower KD than F241A/B4ST6 Fc” value in the experiment with mouse FcRn [1] and with human FcRn [2] were 267 fold and 39 fold, respectively. Also, the “fold enhanced affinity compared to human FcRn” value in the experiment with mouse FcRn [3] was determined as 10 fold. The results for the equilibrium dissociation constant (Kd) with mouse FcRn [4] and with human FcRn [5] were 0.27 nM and 5.2 nM, respectively. The binding result in experiment [6] was “no binding (tested: 100 µg/mL)”.
